Series [1] deals with h-mtTFA (human mitochondrial transcription factor A) (Homo sapiens). In words: inhibition. To be noted: 1 uM protein, HeLa extract excinuclease, 30 C.
Another series has as its system HMG1. In words: inhibition. The settings on record: cisplatin 1,2-d(GpG) intrastrand crosslink at a defined site; 1 uM protein; 20% at 0.5 uM; HeLa extract excinuclease, 30 C; EMSA also run at 1-8 uM but result not stated.

“156 bp DNA with site-specific cisplatin 1,3-d(GpTpG) intrastrand adduct” showed an activity (% inhibition of repair) in series [1] (cisplatin 1,3-d(GpTpG) intrastrand crosslink at a defined site, 40% at 0.5 uM) of 75. Consider “156 bp DNA with site-specific cisplatin 1,2-d(GpG) intrastrand adduct”, for which the activity (% inhibition of repair) was found to be 40 with HMG1 and 100 in series [1] (cisplatin 1,2-d(GpG) intrastrand crosslink at a defined site, 95% at 0.5 uM, 8 mM MgCl2, 2 mM ATP).

For the origin of these results see patent US5705334.
